US20140148501, “DNA APTAMERS FOR PROMOTING REMYELINATION” (MAYO FOUNDATION FOR MEDICAL EDUCATION AND RESEARCH, published 2014)

What was measured:
[1] = target: T1, Myelin basic protein 18.5 kDa isoform (Mus musculus, UniProt P04370-5 P04370-5:2-169); assay: southwestern blot; 5 uM aptamer, PBS, 1 mM MgCl2; conditions: tags: none; from crude SJL mouse CNS myelin, SDS-PAGE separated and blotted to PVDF; label: 5'-fluorescein; putative intramolecular G4
Description: (§1) To promote intramolecular folding, aptamer stock solutions (5 μM) in PBS were heated to 90° C., MgCl₂ was added to a final concentration of 1 mM, and solutions were allowed to cool room temperature. Myelin stock was diluted in PBS and sonicated on ice. Fluorescent folded aptamers were added to different amounts of myelin suspension and incubated at 37° C. for 3 hours. Insoluble material with bound aptamers was recovered by centrifugation for 30 seconds in a microcentrifuge. The pellet was washed with 100 μL PBS and again recovered by centrifugation. After phenol extraction and ethanol precipitation, fluorescent aptamers were quantitated in black plastic 96-well plates using a Typhoon Fluorescent Imaging system (GE Healthcare Biosciences; Piscataway, N.J.). For Southwestern blotting, 15 μg crude myelin protein was separated in each lane of a 10% Bis-Tris SDS polyacrylamide gel in 2-(N-morpholino)ethanesulfonic acid (MES) buffer. After electrophoresis, duplicate lanes were either stained with Coomassie blue dye or transferred to polyvinylidene fluoride (PVDF) membrane by electroblotting. Western blotting was performed by standard methods using antibodies with the indicated specificities. For southwestern blots, membranes were blocked for 30 minutes at 37° C. in tris-buffered saline and TWEEN® 20 (TBST) buffer containing with 1% bovine serum albumin (BSA), 10% non-fat dry milk, 2 mg/mL sonicated and heat-denatured salmon testis DNA, and TWEEN® 20 detergent. Folded fluorescent aptamers (5 μM final concentration) were then added in PBS containing 1 mM MgCl₂ and incubated with PVDF membranes for 14 hours, followed by washing in TBST buffer and then in 0.5× tris/borate/EDTA (TBE) buffer. Fluorescein fluorescence was then detected on membranes using the Typhoon Fluorescent Imaging system. Tryptic peptide mass fingerprinting was performed.
(§2) The specificity of anti-myelin DNA aptamer 3064 and controls 3060 and 3202 was analyzed by assessing the binding of fluorescent aptamers to crude myelin protein suspension using centrifugal sedimentation to recover bound aptamers (FIG. 5A).

[2] = target: T2, Myelin oligodendrocyte glycoprotein MOG (23.8 kDa band) (Mus musculus, UniProt Q61885 Q61885:29-246); assay: southwestern blot; 5 uM aptamer, PBS, 1 mM MgCl2; conditions: tags: none; from crude SJL mouse CNS myelin, SDS-PAGE separated and blotted to PVDF; label: 5'-fluorescein; putative intramolecular G4
T2 sequence: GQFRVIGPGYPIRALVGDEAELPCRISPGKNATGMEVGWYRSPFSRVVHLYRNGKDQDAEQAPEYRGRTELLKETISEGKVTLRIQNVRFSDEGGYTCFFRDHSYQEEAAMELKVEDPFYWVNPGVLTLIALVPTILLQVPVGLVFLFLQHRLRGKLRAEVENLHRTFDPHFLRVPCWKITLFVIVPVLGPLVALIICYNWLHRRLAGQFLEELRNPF
Description: as §1, §2

[3] = target: T3, Proteolipid protein PLP (12.5 kDa band) (Mus musculus, UniProt P60202 P60202:2-277); assay: southwestern blot; 5 uM aptamer, PBS, 1 mM MgCl2; conditions: tags: none; from crude SJL mouse CNS myelin, SDS-PAGE separated and blotted to PVDF; label: 5'-fluorescein; putative intramolecular G4
T3 sequence: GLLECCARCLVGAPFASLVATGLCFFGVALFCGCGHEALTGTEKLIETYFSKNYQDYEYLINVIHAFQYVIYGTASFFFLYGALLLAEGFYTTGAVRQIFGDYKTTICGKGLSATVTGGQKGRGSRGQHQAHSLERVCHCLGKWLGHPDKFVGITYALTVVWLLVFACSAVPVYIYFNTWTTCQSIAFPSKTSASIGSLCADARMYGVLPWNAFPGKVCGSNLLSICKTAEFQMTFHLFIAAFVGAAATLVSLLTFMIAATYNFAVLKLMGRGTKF
Description: as §1, §2

[4] = target: T4, Myelin basic protein isoforms containing exon 2-encoded sequence (17 kDa and 21.5 kDa) (Mus musculus, UniProt P04370-4 P04370-4:2-195); assay: southwestern blot; unique to 3064; 5 uM aptamer, PBS, 1 mM MgCl2, 14 h; conditions: tags: none; from crude SJL mouse CNS myelin, SDS-PAGE separated and blotted to PVDF; label: 5'-fluorescein; putative intramolecular G4
T4 sequence (P04370 other isoform, or with tags, fused parts or gaps): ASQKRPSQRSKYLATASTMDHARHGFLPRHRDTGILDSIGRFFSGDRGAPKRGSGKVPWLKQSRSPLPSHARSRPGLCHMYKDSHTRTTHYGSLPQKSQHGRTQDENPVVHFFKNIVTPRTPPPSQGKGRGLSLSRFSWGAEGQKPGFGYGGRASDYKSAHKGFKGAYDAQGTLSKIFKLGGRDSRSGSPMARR
Description: (§3) To promote intramolecular folding, aptamer stock solutions (5 μM) in PBS were heated to 90° C., MgCl₂ was added to a final concentration of 1 mM, and solutions were allowed to cool room temperature. Myelin stock was diluted in PBS and sonicated on ice. Fluorescent folded aptamers were added to different amounts of myelin suspension and incubated at 37° C. for 3 hours. Insoluble material with bound aptamers was recovered by centrifugation for 30 seconds in a microcentrifuge. The pellet was washed with 100 μL PBS and again recovered by centrifugation. After phenol extraction and ethanol precipitation, fluorescent aptamers were quantitated in black plastic 96-well plates using a Typhoon Fluorescent Imaging system (GE Healthcare Biosciences; Piscataway, N.J.). For Southwestern blotting, 15 μg crude myelin protein was separated in each lane of a 10% Bis-Tris SDS polyacrylamide gel in 2-(N-morpholino)ethanesulfonic acid (MES) buffer. […] Fluorescein fluorescence was then detected on membranes using the Typhoon Fluorescent Imaging system. […]
as §2

[5] = target: T4, Myelin basic protein isoforms …; assay: southwestern blot; conditions: tags: none; from crude SJL mouse CNS myelin, SDS-PAGE separated and blotted to PVDF; label: 5'-fluorescein
Description: as §1, §2

[6] = target: T1, Myelin basic protein 18.5 kDa isoform; assay: southwestern blot; conditions: tags: none; from crude SJL mouse CNS myelin, SDS-PAGE separated and blotted to PVDF; label: 5'-fluorescein
Description: as §1, §2

[7] = target: T2, Myelin oligodendrocyte glycoprotein MOG …; assay: southwestern blot; conditions: tags: none; from crude SJL mouse CNS myelin, SDS-PAGE separated and blotted to PVDF; label: 5'-fluorescein
Description: as §1, §2

[8] = target: T3, Proteolipid protein PLP (12.5 kDa band); assay: southwestern blot; conditions: tags: none; from crude SJL mouse CNS myelin, SDS-PAGE separated and blotted to PVDF; label: 5'-fluorescein
Description: as §1, §2

[9] = target: T4, Myelin basic protein isoforms …; assay: southwestern blot; 17 and 21.5 kDa bands bound only by 3064; conditions: tags: none; from crude SJL mouse CNS myelin, SDS-PAGE separated and blotted to PVDF; label: 5'-fluorescein; putative intramolecular G4
Description: as §3, §2

[10] = target: T1, Myelin basic protein 18.5 kDa isoform; assay: southwestern blot; control selected for chelated Ni; conditions: tags: none; from crude SJL mouse CNS myelin, SDS-PAGE separated and blotted to PVDF; label: 5'-fluorescein; putative intramolecular G4
Description: (§4) After electrophoresis, duplicate lanes were either stained with Coomassie blue dye or transferred to polyvinylidene fluoride (PVDF) membrane by electroblotting. Western blotting was performed by standard methods using antibodies with the indicated specificities. For southwestern blots, membranes were blocked for 30 minutes at 37° C. in tris-buffered saline and TWEEN® 20 (TBST) buffer containing with 1% bovine serum albumin (BSA), 10% non-fat dry milk, 2 mg/mL sonicated and heat-denatured salmon testis DNA, and TWEEN® 20 detergent. Folded fluorescent aptamers (5 μM final concentration) were then added in PBS containing 1 mM MgCl₂ and incubated with PVDF membranes for 14 hours, followed by washing in TBST buffer and then in 0.5× tris/borate/EDTA (TBE) buffer. Fluorescein fluorescence was then detected on membranes using the Typhoon Fluorescent Imaging system. Tryptic peptide mass fingerprinting was performed.
(§5) The specificity of anti-myelin DNA aptamer 3064 and controls 3060 and 3202 was analyzed by assessing the binding of fluorescent aptamers to crude myelin protein suspension using centrifugal sedimentation to recover bound aptamers (FIG. 5A). […] To further assess specificity, crude myelin proteins were separated by SDS-polyacrylamide gel electrophoresis and stained with Coomassie dye (myelin; FIG. 5B, left lane), or blotted to polyvinylidene (PVDF) membrane and probed with antibodies against myelin basic protein (MBP), proteolipid protein (PLP), or MOG in western blots (FIG. 5B, lanes 2-4), or probed with fluorescent aptamers 3202, 3060 or 3064 in southwestern blots (FIG. 5B, lanes 5-7). […] In particular, control aptamer 3060 and myelin-specific aptamer 3064 both bound to three myelin proteins with apparent molecular weights of 12.5 kDa, 18.5 kDa, and 23.8 kDa. Based on western analysis and mass spectrometry of tryptic peptides, these proteins were PLP, the 18.5 kDa isoform of MBP, and MOG, respectively.

[11] = target: T2, Myelin oligodendrocyte glycoprotein MOG …; assay: as above; conditions: tags: none; from crude SJL mouse CNS myelin, SDS-PAGE separated and blotted to PVDF; label: 5'-fluorescein; putative intramolecular G4
Description: as §4, §5

[12] = target: T3, Proteolipid protein PLP (12.5 kDa band); assay: as above; conditions: tags: none; from crude SJL mouse CNS myelin, SDS-PAGE separated and blotted to PVDF; label: 5'-fluorescein; putative intramolecular G4
Description: as §4, §5

Measured: binding result

T1 sequence (P04370 other isoform, or with tags, fused parts or gaps): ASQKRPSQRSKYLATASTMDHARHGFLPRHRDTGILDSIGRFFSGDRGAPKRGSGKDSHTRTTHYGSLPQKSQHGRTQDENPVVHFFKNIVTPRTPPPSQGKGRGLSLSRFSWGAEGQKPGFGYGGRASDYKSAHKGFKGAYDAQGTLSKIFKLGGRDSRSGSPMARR

B1: 3064 (ssDNA)
DNA: GGGTCGGCGGGTGGGGTGGGAGGTGGTCTTGTCTCTGGGT
binds: [1] | [2] | [3] | [4]

B2: 3202 (dT40) (ssDNA)
DNA: TTTTTTTTTTTTTTTTTTTTTTTTTTTTTTTTTTTTTTTT
no binding: [5] | [6] | [7] | [8]

B3: 3060 (ssDNA)
DNA: AAAGAACAAAAAGGATAAAGGGGGAGACGGGGGGAACATGGGG
no binding: [9]
binds: [10] | [11] | [12]
